Tests used:
[1] = target: E3 ubiquitin-protein ligase NEDD4 WW2 domain (human)
[2] = target: E3 ubiquitin-protein ligase NEDD4 WW4 domain (human)
[3] = target: V domain of programmed cell death 6-interacting protein (ALIX V) (human) (UniProt Q8WUM4)
[4] = target: N-terminal domain of clathrin (CLTC NTD) (human) (UniProt Q00610)
Chain of N-terminal domain of clathrin (CLTC NTD) (human) (Q00610 whole entry, the tested form may be a part): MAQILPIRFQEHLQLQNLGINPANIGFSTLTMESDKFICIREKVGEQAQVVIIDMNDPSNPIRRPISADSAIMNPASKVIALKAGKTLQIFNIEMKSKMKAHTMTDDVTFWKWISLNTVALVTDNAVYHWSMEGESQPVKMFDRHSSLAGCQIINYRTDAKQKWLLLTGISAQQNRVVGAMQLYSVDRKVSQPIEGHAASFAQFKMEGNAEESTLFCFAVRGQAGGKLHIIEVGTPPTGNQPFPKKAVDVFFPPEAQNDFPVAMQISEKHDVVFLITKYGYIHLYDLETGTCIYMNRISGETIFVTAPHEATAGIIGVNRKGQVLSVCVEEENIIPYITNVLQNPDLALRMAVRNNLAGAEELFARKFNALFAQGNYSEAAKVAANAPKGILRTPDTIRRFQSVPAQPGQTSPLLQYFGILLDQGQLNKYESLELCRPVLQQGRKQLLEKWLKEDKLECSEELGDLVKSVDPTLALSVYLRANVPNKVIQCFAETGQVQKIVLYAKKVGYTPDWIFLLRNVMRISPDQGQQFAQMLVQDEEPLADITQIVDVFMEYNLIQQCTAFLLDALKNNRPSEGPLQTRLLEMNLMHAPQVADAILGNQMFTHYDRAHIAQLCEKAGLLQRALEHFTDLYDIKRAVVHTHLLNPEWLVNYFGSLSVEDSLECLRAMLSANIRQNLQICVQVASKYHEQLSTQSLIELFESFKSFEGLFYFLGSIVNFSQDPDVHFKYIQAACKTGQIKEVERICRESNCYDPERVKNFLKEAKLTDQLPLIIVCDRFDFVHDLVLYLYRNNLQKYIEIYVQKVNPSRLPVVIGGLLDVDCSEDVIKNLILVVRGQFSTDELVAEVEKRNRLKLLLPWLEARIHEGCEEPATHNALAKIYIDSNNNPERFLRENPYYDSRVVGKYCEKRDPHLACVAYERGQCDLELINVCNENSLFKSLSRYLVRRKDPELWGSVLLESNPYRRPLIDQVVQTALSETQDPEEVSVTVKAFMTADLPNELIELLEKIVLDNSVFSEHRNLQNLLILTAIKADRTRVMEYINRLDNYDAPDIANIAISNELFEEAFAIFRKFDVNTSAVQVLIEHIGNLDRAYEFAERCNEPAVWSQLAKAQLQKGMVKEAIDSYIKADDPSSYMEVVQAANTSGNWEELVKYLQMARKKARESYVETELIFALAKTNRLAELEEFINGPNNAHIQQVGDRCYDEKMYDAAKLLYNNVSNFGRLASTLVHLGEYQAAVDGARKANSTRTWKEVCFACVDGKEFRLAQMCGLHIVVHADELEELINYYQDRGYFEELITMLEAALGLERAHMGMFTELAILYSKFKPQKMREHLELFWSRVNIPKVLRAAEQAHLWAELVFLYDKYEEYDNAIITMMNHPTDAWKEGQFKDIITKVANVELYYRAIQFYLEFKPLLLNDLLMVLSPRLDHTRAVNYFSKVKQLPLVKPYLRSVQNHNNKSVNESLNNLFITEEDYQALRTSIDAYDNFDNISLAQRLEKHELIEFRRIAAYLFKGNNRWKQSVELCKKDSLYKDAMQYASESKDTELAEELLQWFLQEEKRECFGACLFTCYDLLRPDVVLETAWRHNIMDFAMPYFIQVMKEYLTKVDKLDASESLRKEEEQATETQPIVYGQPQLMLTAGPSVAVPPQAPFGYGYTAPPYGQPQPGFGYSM

Chain of V domain of programmed cell death 6-interacting protein (ALIX V) (human) (Q8WUM4 whole entry, the tested form may be a part): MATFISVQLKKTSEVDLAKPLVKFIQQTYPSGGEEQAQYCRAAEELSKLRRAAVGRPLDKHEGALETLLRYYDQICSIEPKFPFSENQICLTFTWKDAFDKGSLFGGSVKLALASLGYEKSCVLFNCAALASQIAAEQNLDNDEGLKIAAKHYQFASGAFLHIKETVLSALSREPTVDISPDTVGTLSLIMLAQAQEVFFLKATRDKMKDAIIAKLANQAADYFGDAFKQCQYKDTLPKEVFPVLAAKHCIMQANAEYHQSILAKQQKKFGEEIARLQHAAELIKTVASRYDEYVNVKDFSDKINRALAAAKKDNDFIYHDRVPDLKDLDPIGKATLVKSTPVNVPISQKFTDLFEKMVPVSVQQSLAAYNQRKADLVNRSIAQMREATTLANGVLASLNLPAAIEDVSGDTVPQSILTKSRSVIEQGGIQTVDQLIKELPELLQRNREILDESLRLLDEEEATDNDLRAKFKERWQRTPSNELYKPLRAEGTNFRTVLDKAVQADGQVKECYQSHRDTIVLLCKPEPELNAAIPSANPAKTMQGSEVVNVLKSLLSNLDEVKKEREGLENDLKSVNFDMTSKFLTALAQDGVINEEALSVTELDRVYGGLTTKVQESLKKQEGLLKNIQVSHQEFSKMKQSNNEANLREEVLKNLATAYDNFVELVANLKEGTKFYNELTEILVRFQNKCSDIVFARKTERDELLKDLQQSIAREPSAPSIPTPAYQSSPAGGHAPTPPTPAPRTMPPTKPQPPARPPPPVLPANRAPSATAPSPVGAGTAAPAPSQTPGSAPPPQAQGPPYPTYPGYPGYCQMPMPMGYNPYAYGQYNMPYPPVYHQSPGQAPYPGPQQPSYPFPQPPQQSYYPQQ
Chain of E3 ubiquitin-protein ligase NEDD4 WW2 domain (human) (P46934 whole entry, the tested form may be a part): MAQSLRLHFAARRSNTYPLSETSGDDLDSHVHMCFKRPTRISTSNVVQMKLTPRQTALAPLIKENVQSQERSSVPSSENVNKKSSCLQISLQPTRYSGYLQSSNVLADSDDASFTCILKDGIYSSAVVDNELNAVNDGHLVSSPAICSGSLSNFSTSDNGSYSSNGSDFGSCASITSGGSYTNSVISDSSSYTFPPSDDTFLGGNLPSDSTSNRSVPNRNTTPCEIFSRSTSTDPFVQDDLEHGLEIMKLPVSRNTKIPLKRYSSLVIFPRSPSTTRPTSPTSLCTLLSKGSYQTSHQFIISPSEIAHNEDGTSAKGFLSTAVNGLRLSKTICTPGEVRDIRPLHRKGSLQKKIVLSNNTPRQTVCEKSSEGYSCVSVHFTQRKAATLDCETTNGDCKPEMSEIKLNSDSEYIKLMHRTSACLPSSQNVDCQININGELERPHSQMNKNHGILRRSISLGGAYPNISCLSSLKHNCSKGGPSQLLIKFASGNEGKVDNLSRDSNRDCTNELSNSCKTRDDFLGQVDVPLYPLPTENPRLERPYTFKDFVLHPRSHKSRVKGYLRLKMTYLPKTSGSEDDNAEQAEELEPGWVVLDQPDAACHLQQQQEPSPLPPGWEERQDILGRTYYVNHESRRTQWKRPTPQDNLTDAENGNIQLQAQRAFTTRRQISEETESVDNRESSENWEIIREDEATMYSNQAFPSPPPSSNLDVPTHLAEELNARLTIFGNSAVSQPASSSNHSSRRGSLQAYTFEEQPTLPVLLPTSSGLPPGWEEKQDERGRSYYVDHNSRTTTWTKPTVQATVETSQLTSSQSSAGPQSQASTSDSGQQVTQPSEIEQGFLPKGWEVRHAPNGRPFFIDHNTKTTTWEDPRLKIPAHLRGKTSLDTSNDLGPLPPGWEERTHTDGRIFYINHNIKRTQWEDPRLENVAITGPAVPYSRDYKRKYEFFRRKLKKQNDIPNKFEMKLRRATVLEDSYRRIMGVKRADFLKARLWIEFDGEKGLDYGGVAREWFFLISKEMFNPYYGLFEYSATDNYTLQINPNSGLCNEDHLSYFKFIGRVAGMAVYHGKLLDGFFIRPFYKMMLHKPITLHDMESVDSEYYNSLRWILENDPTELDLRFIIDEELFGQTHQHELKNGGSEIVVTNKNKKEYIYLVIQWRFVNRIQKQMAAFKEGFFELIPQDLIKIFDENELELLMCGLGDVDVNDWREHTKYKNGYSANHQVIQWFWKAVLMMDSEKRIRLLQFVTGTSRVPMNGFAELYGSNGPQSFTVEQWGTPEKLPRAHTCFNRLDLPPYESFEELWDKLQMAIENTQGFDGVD
Chain of E3 ubiquitin-protein ligase NEDD4 WW4 domain (human) (P46934 whole entry, the tested form may be a part): as above

| Binder | Kd [1] [µM] | Kd [2] [µM] | Kd [3] [µM] | Kd [4] [µM] |
| --- | --- | --- | --- | --- |
| EPDQEPPPPYQEQVPVPVYHPTPSQ [RNF11 31-65 (Human)] | 15 | 35 |  |  |
| EPDQEPPPPYQEQVPV [RNF11 31-56 (Human)] | 13 | 44 |  |  |
| MSSLYPSLEDLKVDQA [SDCBP2 1-16 (Human)] |  |  | 0.29 |  |
| VPVDTNLIEFDTNYAT [ARRB2 367-382 (Human)] |  |  |  | 40 |
| GDLLGDLLNLDLGPPVY [AP1B1 626-641 (Human)] |  |  |  | 300 |
| PPPVLYPNLAELENYM [SDCBP2 39-54 (Human)] |  |  | 2.1 |  |
